Substrate in series [1]: C=C(OP(=O)(O)O)C(=O)O
Nature of the series: purified protein, by the assay type. The note with it: other: pH 7.5, 1 mM S3P.

Substrate in series [2]: C=C(OP(=O)(O)O)C(=O)O
In words: In vitro kinetic assay (inorganic phosphate production, malachite green). The conditions noted are these: other: pH 7.5, 1 mM S3P. The format is biochemical, Triticum aestivum. The text has this:
The following Class I enzymes: DGT-1 from Glycine max, DGT-3 from Brassica napus (GENBANK ACC NO: P17688), and DGT-7 from Triticum aestivum (GENBANK ACC NO: EU977181) were used as a comparison. The Class I EPSP synthase enzymes and mutant variants thereof were synthesized and evaluated. A mutation introduced into the plant EPSP synthase enzymes consisted of the Glycine to Alanine mutation made within the EPSP synthase enzyme at a similar location as that of the G96A mutation from the E. coli version of the enzyme. In addition, Threonine to Isoleucine and Proline to Serine mutations were introduced within these Class I EPSP synthase enzymes at analogous positions as that of amino acid 97 (T to I) and amino acid 101 (P to S) in the EPSP synthase of E. coli as described in Funke et al., (2009).
The location of the amino acid residue which was mutated from glycine to alanine is indicated by the first asterisk. The location of the amino acid residue which was mutated from threonine to isoleucine is indicated by the second asterisk. The location of the third amino acid residue which was mutated from proline to serine is indicated by the third asterisk. These mutations were introduced into different versions of DGT-1, DGT-3, and DGT-7. The different versions of the genes which contain the mutations are described in more detail below.
Additional constructs containing the dgt-1, dgt-3 and dgt-7 were synthesized. These constructs were used for in vitro testing of the dgt-1 v5, dgt-1 v6, dgt-1 v7, dgt-1 v8, dgt-3 v6, dgt-3 v7, dgt-3 v8, dgt-7 v5, dgt-7 v6, dgt-7 v7, and dgt-7 v8 gene sequences were outsourced to GeneArt for synthesis and cloning. The synthesized genes were cloned into the pET28 expression vector. The resulting constructions were labeled as pDAB102028 containing dgt-1 v5, pDAB102029 containing dgt-1 v6, pDAB102032 containing dgt-1 v7, pDAB102034 containing dgt-1 v8, pDAB100429 containing dgt-3 v6, pDAB100442 containing dgt-3 v7, pDAB100430 containing dgt-3 v8, pDAB102036 containing dgt-7 v5, pDAB102038 containing dgt-7 v6, pDAB102040 containing dgt-7 v7, and pDAB102042 containing dgt-7 v8.
Recombinant DGT proteins were overexpressed in Rosetta2™ (DE3) cells (Novagen, Madison, Wis.) from the constructs described above. A single colony was used to inoculate 50 mL starter cultures of LB containing chloramphenicol (25 μg/mL) and kanamycin (50 μg/mL) which were cultivated overnight at 37° C. The overnight cultures were used to inoculate 1 L of LB containing chloramphenicol (25 μg/mL) and kanamycin (50 μg/mL). The cultures were grown at 37° C. to an O.D.600=0.6 then placed in an ice water bath for 10 minutes. Expression of the target proteins was achieved by addition of IPTG to a final concentration of 500 μM. Induction was allowed to proceed overnight at 20° C. followed by harvesting via centrifugation at 8,000 rpm for 20 minutes. The cell pellets were stored at −80° C. until required for purification. All purification steps were carried out at 4° C.
Cell pellets from 1 L cultures were resuspended in 20-30 mL Buffer A (50 mM HEPES pH 7.5, 150 mM KCl, 2 mM DTT, 1 mM EDTA, 20 mM imidazole, and 5% glycerol). COMPLETE™ protease inhibitor cocktail (1 tablet/50 mL, Roche, Indianapolis, Ind.) and lysozyme (1 mg/mL, Sigma-Aldrich, St. Louis, Mo.) were then added and the suspension was stirred for 20 minutes. Cell lysis was performed using a Branson Sonifier 250 (3×60 second bursts) followed by removal of the cell debris by centrifugation at 16,000 rpm for 45 minutes. […]

“And” between values parts separate entries of the source, which are not always exact repeats. Equal entries are not always repeated.

B1: Glycine max (soybean) EPSP synthase DGT-1 v5, native, SEQ ID NO: 59 (Glycine max) (protein)
chain: MASVAAAEKPSTSPEIVLEPIKDFSGTITLPGSKSLSNRILLLAALSEGTTVVDNLLYSEDIHYMLGALRTLGLRVEDDKTTKQAIVEGCGGLFPTSKESKDEINLFLGNAGTAMRPLTAAVVAAGGNASYVLDGVPRMRERPIGDLVAGLKQLGADVDCFLGTNCPPVRVNGKGGLPGGKVKLSGSVSSQYLTALLMAAPLALGDVEIEIVDKLISVPYVEMTLKLMERFGVSVEHSGNWDRFLVHGGQKYKSPGNAFVEGDASSASYLLAGAAITGGTITVNGCGTSSLQGDVKFAEVLEKMGAKVTWSENSVTVSGPPRDFSGRKVLRGIDVNMNKMPDVAMTLAVVALFANGPTAIRDVASWRVKETERMIAICTELRKLGATVEEGPDYCVITPPEKLNVTAIDTYDDHRMAMAFSLAACGDVPVTIKDPGCTRKTFPDYFEVLERLTKH
B1: in series [1], the Km (in general, the substrate concentration at which the rate is half of its maximum) was 70 µM and 73.0 µM.

B2: Triticum aestivum (wheat) EPSP synthase DGT-7 v5, native (GENBANK EU977181), SEQ ID NO: 60 (Triticum aestivum) (protein)
chain: MATSVAAPAAPSGAEEVVLQPIREISGAVQLPGSKSLSNRILLLSALSEGTTVVDNLLNSEDVHYMLEALEALGLSVEADKVAKRAVVVGCGGRFPVEKDAQEEVKLFLGNAGTAMRPLTAAVVAAGGNATYVLDGVPRMRERPIGDLVVGLQQLGADADCFLGTNCPPVRINGKGGLPGGKVKLSGSISSQYLSSLLMAAPLALEDVEIEIIDKLISVPYVEMTLKLMERFGVTAEHSDSWDRFYIKGGQKYKSPGNAYVEGDASSASYFLAGAAITGGTVTVEGCGTTSLQGDVKFAEVLEMMGAKVTWTDTSVTVTGPPRQPFGRKHLKAVDVNMNKMPDVAMTLAVVALFADGPTAIRDVASWRVKETERMVAIRTELTKLGATVEEGPDYCIITPPEKLNITAIDTYDDHRMAMAFSLAACAEVPVTIRDPGCTRKTFPNYFDVLSTFVKN
For the protein B2, the Km in series [1] came out at 75.6 µM.

B3: Triticum aestivum (wheat) EPSP synthase DGT-7 variant DGT-7 v8 (T→I, P→S; TIPS) (Triticum aestivum; P172S/T168I) (protein)
chain: MATSVAAPAAPSGAEEVVLQPIREISGAVQLPGSKSLSNRILLLSALSEGTTVVDNLLNSEDVHYMLEALEALGLSVEADKVAKRAVVVGCGGRFPVEKDAQEEVKLFLGNAGIAMRSLTAAVVAAGGNATYVLDGVPRMRERPIGDLVVGLQQLGADADCFLGTNCPPVRINGKGGLPGGKVKLSGSISSQYLSSLLMAAPLALEDVEIEIIDKLISVPYVEMTLKLMERFGVTAEHSDSWDRFYIKGGQKYKSPGNAYVEGDASSASYFLAGAAITGGTVTVEGCGTTSLQGDVKFAEVLEMMGAKVTWTDTSVTVTGPPRQPFGRKHLKAVDVNMNKMPDVAMTLAVVALFADGPTAIRDVASWRVKETERMVAIRTELTKLGATVEEGPDYCIITPPEKLNITAIDTYDDHRMAMAFSLAACAEVPVTIRDPGCTRKTFPNYFDVLSTFVKN
notes: TIPS double mutant
Take B3: in series [2], the Km turned out to be 60.5 µM.

B4: Triticum aestivum (wheat) EPSP synthase DGT-7 variant DGT-7 v6 (G→A) (Triticum aestivum; G167A) (protein)
chain: MATSVAAPAAPSGAEEVVLQPIREISGAVQLPGSKSLSNRILLLSALSEGTTVVDNLLNSEDVHYMLEALEALGLSVEADKVAKRAVVVGCGGRFPVEKDAQEEVKLFLGNAATAMRPLTAAVVAAGGNATYVLDGVPRMRERPIGDLVVGLQQLGADADCFLGTNCPPVRINGKGGLPGGKVKLSGSISSQYLSSLLMAAPLALEDVEIEIIDKLISVPYVEMTLKLMERFGVTAEHSDSWDRFYIKGGQKYKSPGNAYVEGDASSASYFLAGAAITGGTVTVEGCGTTSLQGDVKFAEVLEMMGAKVTWTDTSVTVTGPPRQPFGRKHLKAVDVNMNKMPDVAMTLAVVALFADGPTAIRDVASWRVKETERMVAIRTELTKLGATVEEGPDYCIITPPEKLNITAIDTYDDHRMAMAFSLAACAEVPVTIRDPGCTRKTFPNYFDVLSTFVKN
With B4, in series [2], the Km was 538.2 µM and the kcat/Km – broadly, the second-order rate constant that governs catalysis at low substrate concentration – is 16100 M⁻¹ s⁻¹.

B5: Triticum aestivum (wheat) EPSP synthase DGT-7 variant DGT-7 v7 (G→A, P→S; GAPS) (Triticum aestivum; G167A/P172S) (protein)
chain: MATSVAAPAAPSGAEEVVLQPIREISGAVQLPGSKSLSNRILLLSALSEGTTVVDNLLNSEDVHYMLEALEALGLSVEADKVAKRAVVVGCGGRFPVEKDAQEEVKLFLGNAATAMRSLTAAVVAAGGNATYVLDGVPRMRERPIGDLVVGLQQLGADADCFLGTNCPPVRINGKGGLPGGKVKLSGSISSQYLSSLLMAAPLALEDVEIEIIDKLISVPYVEMTLKLMERFGVTAEHSDSWDRFYIKGGQKYKSPGNAYVEGDASSASYFLAGAAITGGTVTVEGCGTTSLQGDVKFAEVLEMMGAKVTWTDTSVTVTGPPRQPFGRKHLKAVDVNMNKMPDVAMTLAVVALFADGPTAIRDVASWRVKETERMVAIRTELTKLGATVEEGPDYCIITPPEKLNITAIDTYDDHRMAMAFSLAACAEVPVTIRDPGCTRKTFPNYFDVLSTFVKN
notes: GAPS double mutant
B5: in series [2], the Km worked out at 1103.2 µM and the specificity constant (kcat/Km) worked out at 14600 M⁻¹ s⁻¹.

These data come from patent publication US9873883B2, “Glyphosate resistant plants and associated methods” (Dow AgroSciences LLC, priority 2012, dated 2018).
